Columns and labels:
His-SAPK10 = target: T1, His-SAPK10 (rice (Oryza sativa L.), UniProt Q75H77 1-362); assay: pull-down; GST pull-down on glutathione magnetic agarose beads; 50 mM Tris-HCl pH 7.5, 5% glycerol, 1 mM EDTA, 1 mM DTT, 1 mM PMSF, 0.01% Nonidet P-40, 150 mM KCl; 4 °C for 2 h; blots with anti-His and anti-GST; conditions: both partners purified
T1 construct: SAPK10, SnRK2-type Ser/Thr protein kinase of rice; the CDS was fused into pET-28a; source: E. coli Transetta (DE3), purified (6x His-Tagged Protein Purification Kit); not shown: His, N-terminal, kept
T1 sequence (looked up): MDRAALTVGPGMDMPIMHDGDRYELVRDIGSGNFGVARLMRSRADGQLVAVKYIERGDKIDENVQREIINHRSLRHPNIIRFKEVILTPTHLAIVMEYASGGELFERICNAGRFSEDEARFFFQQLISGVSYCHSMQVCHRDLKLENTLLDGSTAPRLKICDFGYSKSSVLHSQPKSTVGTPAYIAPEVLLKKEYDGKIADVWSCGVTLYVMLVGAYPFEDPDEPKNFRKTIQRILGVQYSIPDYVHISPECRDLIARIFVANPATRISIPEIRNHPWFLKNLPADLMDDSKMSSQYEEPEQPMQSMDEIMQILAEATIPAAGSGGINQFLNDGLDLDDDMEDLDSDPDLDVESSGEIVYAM

GST-ABF1 = target: T2, GST-ABF1 (Oryza sativa L. ssp. japonica cv …, UniProt Q0JHF1 1-266); assay: EMSA; binding lost with unlabeled probe; EMSA/gel-shift binding buffer (composition, pH and temperature not stated); 20 fmol biotin-labeled probe; 6% acrylamide gel; conditions: protein: recombinant; tags: N-terminal GST (pGEX-4T-1); chain copies: 2; label: biotin; blunt
T2 sequence: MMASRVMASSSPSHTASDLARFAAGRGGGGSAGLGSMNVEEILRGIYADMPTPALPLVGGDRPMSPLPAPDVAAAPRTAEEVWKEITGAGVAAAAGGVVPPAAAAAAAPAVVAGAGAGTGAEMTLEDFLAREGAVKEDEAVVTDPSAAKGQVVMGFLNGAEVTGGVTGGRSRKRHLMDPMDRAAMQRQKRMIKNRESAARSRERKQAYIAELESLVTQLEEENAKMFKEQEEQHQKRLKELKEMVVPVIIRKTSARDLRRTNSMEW

B1: GST-ABF1 (natural protein, rice (Oryza sativa L.), UniProt Q0JHF1 1-266, looked up)
chain: MMASRVMASSSPSHTASDLARFAAGRGGGGSAGLGSMNVEEILRGIYADMPTPALPLVGGDRPMSPLPAPDVAAAPRTAEEVWKEITGAGVAAAAGGVVPPAAAAAAAPAVVAGAGAGTGAEMTLEDFLAREGAVKEDEAVVTDPSAAKGQVVMGFLNGAEVTGGVTGGRSRKRHLMDPMDRAAMQRQKRMIKNRESAARSRERKQAYIAELESLVTQLEEENAKMFKEQEEQHQKRLKELKEMVVPVIIRKTSARDLRRTNSMEW
notes: ABF1 (bZIP12), bZIP transcription factor of rice; the CDS was fused into pGEX-4T-1; also called bZIP12; source: E. coli Transetta (DE3), purified (GST-Sefinose Kit); not shown: GST, N-terminal, kept
- binding result (His-SAPK10): binds

B2: TPS2 promoter probe (P3, G-box) (dsDNA)
DNA 1: CAGACCTGACGTCAGACGACGATTAGCCACGTGGCACACAGTGCACCCGACACGACGAA
DNA 2: TTCGTCGTGTCGGGTGCACTGTGTGCCACGTGGCTAATCGTCGTCTGACGTCAGGTCTG
- binding result (GST-ABF1): binds
